# In the Immune Epitope Database (IEDB):
# How the values were obtained:
# HLA-A*02:01 [1] = test: IEDB peptide-MHC binding, purified MHC/direct/fluorescence; filed as Kd, often an IC50 or EC50 that approximates it; ≥ and ≤ were set here for values at or beyond the usual limits of such assays
# HLA-A*02:01 [2] = test: IEDB peptide-MHC binding, purified MHC/competitive/fluorescence; ≥ and ≤ were set here for values at or beyond the usual limits of such assays
# HLA-A*03:01 = test: IEDB peptide-MHC binding, purified MHC/direct/fluorescence; filed as Kd, often an IC50 or EC50 that approximates it; ≥ and ≤ were set here for values at or beyond the usual limits of such assays
# HLA-B*15:01 = test: as above
# HLA-B*07:02 = test: as above
# HLA-A*26:01 = test: IEDB peptide-MHC binding, purified MHC/competitive/radioactivity; filed as Kd, often an IC50 or EC50 that approximates it; ≥ and ≤ were set here for values at or beyond the usual limits of such assays
# HLA-B*44:02 = test: as above
# HLA-B*44:03 = test: as above
# HLA-A*02:01 [3] = test: IEDB peptide-MHC binding, purified MHC/competitive/fluorescence; filed as Kd, often an IC50 or EC50 that approximates it; ≥ and ≤ were set here for values at or beyond the usual limits of such assays; conditions: source organism: Bacillus anthracis str. A0488
# HLA-A*69:01 = test: IEDB peptide-MHC binding, purified MHC/direct/fluorescence; filed as Kd, often an IC50 or EC50 that approximates it; ≥ and ≤ were set here for values at or beyond the usual limits of such assays
# HLA-A*11:01 = test: as above; conditions: source organism: Homo sapiens
# HLA-A*02:03 = test: IEDB peptide-MHC binding, purified MHC/competitive/radioactivity; filed as Kd, often an IC50 or EC50 that approximates it; ≥ and ≤ were set here for values at or beyond the usual limits of such assays
# HLA-A*02:02 = test: as above
# HLA-A*02:06 = test: as above
# HLA-A*24:02 = test: as above; conditions: source organism: Dengue virus 2 Jamaica/1409/1983
# [4] = source organism: Zaire ebolavirus
# [5] = source organism: Mycobacterium tuberculosis str. Haarlem
# [6] = source organism: Dengue virus 1 Brazil/97-11/1997
# [7] = source organism: Dengue virus 2 Jamaica/1409/1983
# [8] = source organism: Vaccinia virus WR
# [9] = source organism: SARS coronavirus Tor2
# [10] = source organism: Mycobacterium avium 104
# [11] = source organism: Salmonella enterica subsp. enterica serovar Typhimurium
sequence,measurement,setting,value
PMVHSTFLI,Kd,HLA-A*02:01 [1]; source organism: Homo sapiens,2430 nM
QLAKAIITP,IC50,HLA-A*02:01 [2]; source organism: Vaccinia virus Copenhagen,≥ 96300 nM
QVNNLEEIC,IC50,HLA-A*02:01 [2]; [4],≥ 112000 nM
RMGAAVTPY,Kd,HLA-A*03:01; [5],254 nM
same,Kd,HLA-B*15:01; [5],98.8 nM
RMMASSMSQ,Kd,HLA-A*03:01; source organism: Bacillus cereus,≥ 20000 nM
RNRDQSNAL,Kd,HLA-B*07:02; source organism: Mycobacterium tuberculosis,112 nM
SAVNMTSRM,Kd,HLA-A*26:01; [6],1220 nM
SELFRSRLDSY,Kd,HLA-B*44:02; source organism: Homo sapiens,5.4 nM
SEMIIPKNF,Kd,HLA-B*44:02; [7],10.7 nM
same,Kd,HLA-B*44:03; [7],12.9 nM
SLAALFYSL,Kd,HLA-A*02:01 [3],1.8 nM
SLTKLFSYG,IC50,HLA-A*02:01 [2]; source organism: Variola virus,8920 nM
SMVNGVVKL,Kd,HLA-A*69:01; source organism: Dengue virus 1 Singapore/S275/1990,≥ 20000 nM
SRNSTHEMYW,Kd,HLA-B*44:02; [7],6360 nM
same,Kd,HLA-B*44:03; [7],1370 nM
SSLPPLESD,IC50,HLA-A*02:01 [2]; [4],≥ 170000 nM
STEIGLLVG,Kd,HLA-A*11:01,12400 nM
STPQGLVKRF,Kd,HLA-A*26:01; source organism: Dengue virus 4 Philippines/H241/1956,453 nM
TAEQLSKYV,Kd,HLA-A*02:03; [8],8900 nM
same,Kd,HLA-A*02:02; [8],5220 nM
same,Kd,HLA-A*02:06; [8],≥ 23900 nM
TISGNIYSA,Kd,HLA-A*02:03; [8],18.9 nM
same,Kd,HLA-A*02:02; [8],84.5 nM
same,Kd,HLA-A*02:06; [8],179 nM
TLLCVLAAL,Kd,HLA-A*02:03; [9],10.6 nM
same,Kd,HLA-A*02:02; [9],8.1 nM
same,Kd,HLA-A*02:06; [9],7.98 nM
TLVPVLEKKV,Kd,HLA-A*02:03; [8],100 nM
same,Kd,HLA-A*02:02; [8],112 nM
same,Kd,HLA-A*02:06; [8],498 nM
TTLATISTS,IC50,HLA-A*02:01 [2]; [4],6620 nM
TVIALFLAH,Kd,HLA-A*26:01; [6],12200 nM
VATFRDMLL,Kd,HLA-A*02:03; [8],9940 nM
same,Kd,HLA-A*02:02; [8],2530 nM
same,Kd,HLA-A*02:06; [8],7720 nM
VEGLSGATW,Kd,HLA-B*44:02; [6],30 nM
same,Kd,HLA-B*44:03; [6],89.1 nM
VIADYNYKL,Kd,HLA-A*02:03; [9],115 nM
same,Kd,HLA-A*02:02; [9],0.477 nM
same,Kd,HLA-A*02:06; [9],69.1 nM
VILPDKIDGL,Kd,HLA-A*02:03; [8],10800 nM
same,Kd,HLA-A*02:02; [8],8090 nM
same,Kd,HLA-A*02:06; [8],240 nM
VLFDLDEDD,IC50,HLA-A*02:01 [2]; [4],3740 nM
VQFSILNNPV,Kd,HLA-A*02:03; [8],369 nM
same,Kd,HLA-A*02:02; [8],131 nM
same,Kd,HLA-A*02:06; [8],186 nM
VVKDKIKLPT,Kd,HLA-A*02:03; [8],8600 nM
same,Kd,HLA-A*02:02; [8],≥ 37300 nM
same,Kd,HLA-A*02:06; [8],≥ 29200 nM
VYLPGRGGV,Kd,HLA-A*02:01 [1]; [10],≥ 20000 nM
same,Kd,HLA-A*69:01; [10],≥ 20000 nM
WLKGNISPV,Kd,HLA-B*07:02; [11],3110 nM
same,Kd,HLA-B*15:01; [11],795 nM
same,Kd,HLA-A*02:01 [1]; [11],20.5 nM
same,Kd,HLA-A*69:01; [11],536 nM
WLMWFIISIV,Kd,HLA-A*02:03; [9],4.72 nM
same,Kd,HLA-A*02:02; [9],246 nM
same,Kd,HLA-A*02:06; [9],107 nM
WVIILFQKA,IC50,HLA-A*02:01 [2]; source organism: Sudan ebolavirus,≥ 341000 nM
WYAQIQPHWI,Kd,HLA-A*24:02,49.3 nM
YAVLSEYETM,Kd,HLA-A*02:03; [8],9630 nM
same,Kd,HLA-A*02:02; [8],157 nM
same,Kd,HLA-A*02:06; [8],1210 nM
YIEDELRRA,Kd,HLA-A*02:03; [8],259 nM
same,Kd,HLA-A*02:02; [8],1760 nM
same,Kd,HLA-A*02:06; [8],1230 nM
YIRRNMINKL,Kd,HLA-A*02:03; [8],69.6 nM
same,Kd,HLA-A*02:02; [8],820 nM
same,Kd,HLA-A*02:06; [8],8660 nM
YIWKSYVHI,Kd,HLA-A*02:03; [9],12.9 nM
same,Kd,HLA-A*02:02; [9],86.4 nM
same,Kd,HLA-A*02:06; [9],8.89 nM
YLGHSAGFTA,Kd,HLA-A*02:03; [8],86.1 nM
same,Kd,HLA-A*02:02; [8],16.4 nM
same,Kd,HLA-A*02:06; [8],144 nM
YTEAAAATCA,Kd,HLA-A*02:03; [8],16100 nM
same,Kd,HLA-A*02:02; [8],≥ 36500 nM
same,Kd,HLA-A*02:06; [8],7150 nM
YVEHDPRLVA,Kd,HLA-A*02:03; [8],16200 nM
same,Kd,HLA-A*02:02; [8],18600 nM
same,Kd,HLA-A*02:06; [8],11900 nM
